{
  "source": "patent US7964369",
  "target": "bacterial recombinant GST-GRAIL fusion protein, Q9D304",
  "sequence (Q9D304 whole entry, looked up, the tested form may be a part)": "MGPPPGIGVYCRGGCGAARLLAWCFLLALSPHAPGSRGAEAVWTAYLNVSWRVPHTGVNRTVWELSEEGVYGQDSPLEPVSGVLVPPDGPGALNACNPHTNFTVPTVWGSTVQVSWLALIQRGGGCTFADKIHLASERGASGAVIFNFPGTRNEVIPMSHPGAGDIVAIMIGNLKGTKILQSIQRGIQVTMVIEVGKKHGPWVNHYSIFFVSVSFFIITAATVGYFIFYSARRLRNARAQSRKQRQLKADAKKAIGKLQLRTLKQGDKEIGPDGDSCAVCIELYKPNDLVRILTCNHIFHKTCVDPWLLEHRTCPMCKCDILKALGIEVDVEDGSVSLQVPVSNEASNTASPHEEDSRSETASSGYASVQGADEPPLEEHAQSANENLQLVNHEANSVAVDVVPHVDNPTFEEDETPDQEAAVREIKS",
  "data": [
    {"protein": "USP8 expressed in E. coli (pET28) (protein) MPAVASVPKELYLSSSLKDLNKKTEVKPEKTSTKNYIHSAQKIFKTAEECRLDRDEERAYVLYMKYVAVYNLIKKRPDFKQQQDYYLSILGPANIKKAIEEAERLSESLKLRYEEAEVRKQLEEKDRREEEQLQQQKRQEMGREDSGAAAKRSVENLLDSKTKTQRINGEKSEGAAAAERGAITAKELYTMMMDKNTSLIIMDARKIQDYQHSCILDSLSVPEEAISPGVTASWIEANLSDDSKDTWKKRGSVDYVVLLDWFSSAKDLLLGTTLRSLKDALFKWESKTVLRHEPLVLEGGYENWLLCYPQFTTNAKVTPPPRSRAEEVSVSLDFTYPSLEEPVPSKLPTQMPPPPIETNEKALLVTDQDEKLRLSTQPALAGPGAAPRAEASPIIQPAPATKSVPQVDRTKKPSVKLPEDHRIKSENTDQSGRVLSDRSTKPVFPSPTTMLTDEEKARIHQETALLMEKNKQEKELWDKQQKEQKEKLRREEQERKAGKTQDADERDSTENQHKAKDGQEKKDSKQTKTEDRELSADGAQEATGTQRQSKSEHEASDAKVPVEGKRCPTSEAQKRPADVSPASVSGELNAGKAQREPLTRARSEEMGRIVPGLPLGWAKFLDPITGTFRYYHSPTNTVHMYPPEMAPSSAPPSTPPTHKVKPQVPAERDREPSKLKRSYSSPDITQALQEEEKRRPAVTPMVNRENKPPCYPKAEISRLSASQIRNLNPVFGGSGPALTGLRNLGNTCYMNSILQCLCNAPHLADYFNRNCYQDDINRSNLLGHKGEVAEEFGIIMKALWTGQYRYISPKDFKVTIGKINDQFAGSSQQDSQELLLFLMDGLHEDLNKADNRKRHKEENNEHLDDLQAAEHAWQKHKQLNESIIVALFQGQFKSTVQCLTCRRRSRTFEAFMYLSLPLASTSKCTLQDCLRLFSKEEKLTDNNRFYCSHCRARRDSLKKIEIWKLPPVLLVHLKRFSYDGRWKQKLQTSVDFPLENLDLSQYVIGPKNSLKKYNLFSVSNHYGGLDGGHYTAYCKNAARQRWFKFDDHEVSDISVSSVRSSAAYILFYTSLGPRITDVAT", "values": [
      {"measurement": "de-ubiquitination of auto-ubiquitinated GST-GRAIL in vitro", "result": "USP8 is capable of de-ubiquitinating GRAIL in vitro"}
    ]}
  ]
}
